# Patent US9938503B2, “Differentiation of human iPS cells to human alveolar type II via definitive endoderm” (YALE UNIVERSITY, priority 2012, dated 2018)
# B1: activin A: soluble cytokine activating the nodal receptor, used at 100 ng/ml to induce definitive endoderm (protein, UniProt P08476 311-426, looked up)
# Inhibin beta A chain: GLECDGKVNICCKKQFFVSFKDIGWNDWIIAPSGYHANYCEGECPSHIAGTSGSSLSFHSTVINHYRMRGHSPFANLKSCCVPTKLRPMSMLYYDDGQNIIKKDIQNMIVEECGCS
# modifications: Inhibin beta A chain
# Experiments:
# [1] = tested on: iPSC-AETII cells; assay: Differentiation of iPSC-derived AETII cells to AETI cells with IWR-1; type: cell-based, human
# Procedure: Differentiated cells at day 22 were then maintained in DMEM medium with 10% FBS, 2 mM L-glutamine, 1 mM nonessential amino acids, 1% antibiotic-antimycotic and […] IWR-1 for 7 days.
# (§1) For flow cytometry, cells were dissociated into single-cell suspensions by incubation with 0.25% trypsin for 2 min, and fixed (Fixation/Permeabilization kit, BD Biosciences). After blocking for 30 min on ice, the cells were incubated with primary antibody in blocking solution for 30 min on ice. The cells were resuspended in 350 μl of Perm/Wash buffer after incubation with conjugated secondaries for 30 min on ice, washed twice, and analyzed by flow cytometry. See Table 1 for antibody information.
# (§2) Total RNA was extracted using the RNeasy Mini Kit from Qiagen, following the manufacturer's instructions. First-strand complementary DNA (cDNA) was synthesized with random hexamers as primers, using SuperScript First-Strand Synthesis System according to manufacturer's protocol (Invitrogen). Each sample was run in triplicate with iQ™ SYBR Green Supermix (Bio-Rad). PCR conditions included an initial denaturation step of 4 min at 95° C., followed by 40 cycles of PCR consisting of 15s at 95° C., 30 s at 60° C., and 30 s at 72° C. Average threshold cycle (Ct) values from the triplicate PCR reactions for a gene of interest (GOI) were normalized against average GAPDH Ct values from the same cDNA sample. Fold change of GOI transcript levels between sample A and sample B equals 2^−ΔΔCt, where ΔCt=Ct(GOI)−Ct(GAPDH), and ΔΔCt=ΔCt(A)−ΔCt(B).
# [2] = tested on: iPSC-derived DE cells; assay: Extracellular matrix protein effects on DE cell adhesion and differentiation; type: cell-based, human; conditions: ECM-coated plates, media with NOGGIN/SB-431542
# Procedure: (§3) DE generated by exposure to activin A were trypsinized, reseeded at a ratio of 1:1-2 on human ECM protein-coated plates and differentiated to anterior foregut endoderm with IMDM+5% FBS, 2 mM L-glutamine, 1 mM nonessential amino acids, 1% antibiotic-antimycotic supplemented with 200 ng/ml NOGGIN and […] SB-431542 for 2 days (Longmire T A, et al. 2012. Cell Stem Cell 10(4):398-411, Green M D, et al. 2011. Nat Biotechnol 29(3):267-272).
# as §2, with “ΔΔCt=ΔCt(A)−ΔCt(B). […]” for “ΔΔCt=ΔCt(A)−ΔCt(B).”
# [3] = tested on: iPSC-derived definitive endoderm cells; assay: Differentiation of definitive endoderm to anterior foregut endoderm with NOGGIN/SB-431542, flow cytometry; type: cell-based, human
# Procedure: as §3, §1
# [4] = tested on: human iPS cells (C1 and C2 clones); assay: Differentiation of iPS cells to definitive endoderm with activin A, flow cytometry; type: cell-based; conditions: for endodermal cells based on dual expression of SOX17 and FOXA2: day 6
# Procedure: Human iPSCs were differentiated to alveolar epithelium in a directed differentiation protocol via definitive endoderm (DE) and anterior foregut endoderm (AFE). iPS cells were differentiated towards definitive endoderm under conditions described previously (Duan Y, et al. 2010. Stem Cells 28(4):674-686, Kubo A, et al. 2004. Development. 131(7):1651-1662). Briefly, h-iPSC were cultured in RPMI 1640 medium supplemented with 100 ng/ml activin A, 2 mM L-glutamine and 1% antibiotic-antimycotic for 48 hours; 1xB27 supplement, 0.5 mM sodium butyrate and 0.1% FBS were added into the same medium and the cells were cultured for another 4 days, with daily medium changes (D'Amour K A, et al. 2005. Nat Biotechnol 23(12):1534-1541).
# as §1
# [5] = 100 mM IWR-1 for 7 days from day 22, flow cytometry, C1 clone
# [6] = continuous activin A from day 6 to day 8 without NOGGIN/SB-431542
# [7] = C1 clone, day 6, 100 ng/ml activin A, flow cytometry
# [8] = C2 clone, day 6, 100 ng/ml activin A, flow cytometry
molecule,measurement,setting,value
O=C(Nc1cccc2cccnc12)c1ccc(N2C(=O)[C@@H]3[C@H](C2=O)[C@@H]2C=C[C@H]3C2)cc1 [IWR-1],cells expressing T1α,[1]; [5],≤ 88%
same,cells positive for aquaporin-5 (AQ5),[1]; [5],up to 92%
same,cells positive for caveolin-1,[1]; [5],≤ 98%
same,AETI cells positive for the type I markers T1α and caveolin-1,[1]; AETII exposed to Wnt/β-catenin inhibitor,more than 90%
same,"AETI markers AQ5, T1α and caveolin-1 by immunostaining",[1]; IWR-1 treated versus untreated AETII,significant increase
same,AETII cell marker SPC,"[1]; after IWR-1, flow cytometry",decreased significantly
same,expression of type I cell markers by quantitative RT-PCR,[1]; iPSC-AETII cells exposed to IWR-1 versus freshly isolated human primary alveolar type I cells,comparable to expression levels of freshly isolated human primary alveolar type I cells
Fibronectin,DE cell attachment,[2],attach well
laminin,DE cell attachment,[2],attach well
B1,cells positive for NKX2.1,"[3]; activin A induced cells without NOGGIN/SB-431542, day 13",< 1%
same,FOXA2+/SOX2+ cells,[3]; [6],rare
same,NKX2.1+ cells,[3]; [6],few
same,endodermal cells based on dual expression of SOX17 and FOXA2,[4]; C1 clone,more than 85%
same,percentage of cells expressing CXCR4,[4]; [7],92.71±4.0%
same,percentage of cells expressing FOXA2,[4]; [7],87.66±1.2%
same,endodermal cells based on dual expression of SOX17 and FOXA2,[4]; C2 clone,> 89%
same,percentage of cells expressing CXCR4,[4]; [8],87.23±2.0%
same,percentage of cells expressing FOXA2,[4]; [8],83.54±1.8%
same,percentage of cells expressing SOX17,[4]; [8],91.42±3.0%
